Biological target: T1, HCMV gH/gL complex expressed in U373 astrocytoma cells (Human cytomegalovirus (HHV-5), strain …, UniProt P12824;P16832)
T1 construct: Human cytomegalovirus envelope glycoprotein H (gH); Human cytomegalovirus envelope glycoprotein L (gL); The immunisation plasmid and the peptide array used TB40/E gH, but no strain is named for the U373 cells; also called gH/gL-dimer; U373-gH/gL
Assay: flow cytometry on cells; Competition of the anti-gH mAbs with MSL-109. The set-up for MSL-109 is not told. The competition assay in the methods uses fixed, permeabilised U373-gH/gL cells, AF647-labelled antibody plus unlabelled antibody, 4 °C, 1 h.
Conditions: one partner purified

B1: MSL-109 (antibody, V domains shown)
VH: EEQVLESGGGLVKPGGSLRLSCAASGFTFSPYSVFWVRQAPGKGLEWVSSINSDSTYKYYADSVKGRFTISRDNAENSIFLQMNSLRAEDTAVYYCARDRSYYAFSSGSLSDYYYGLDVWGQGTLVTVSS
VL: DIVMTQSPLSLSVTPGEPASISCRSSQSLLHTNGYNYLDWYVQKPGQSPQLLIYLASNRASGVPDRFSGSGSGTDFTLKISRVETEDVGVYYCMQALQIPRTFGQGTKVEIK
notes: Human IgG1 constant region from the pFuse vector (InvivoGen); Human kappa constant region from the pFuse vector (InvivoGen); Human IgG1 kappa; source: HEK-293, heavy and light chain co-transfected, purified from the cell supernatant
binding result: binds

— publication PMC9038728, “Development of broadly neutralizing antibodies targeting the cytomegalovirus subdominant antigen gH” (Communications Biology, 2022)
